US20090136418A1

Key:
[1] = target: unknown target molecule expressed on the plasma membranes of human HCC cells; test: flow cytometry on HCC cell line HA22T; design: concentration or dose not given beside the values
[2] = target: unknown target molecule expressed on the plasma membranes of human HCC cells; test: flow cytometry on HCC cell lines Mahlavu, 59T, Hep3B, HepG2, NTUBL and SKHepl (range over the six lines); design: concentration or dose not given beside the values
[3] = target: unknown target molecule expressed on the plasma membranes of human HCC cells; test: flow cytometry on HCC cell lines Changliver and J5 (range over the two lines); design: concentration or dose not given beside the values
[4] = target: unknown target molecule expressed on the plasma membranes of human HCC cells
[5] = target: unknown target molecule expressed on the plasma membranes of human HCC cells; test: in vivo competition, 100 ug SP94 co-injected with 2x10^9 pfu PC94 (competitor of PC94), Mahlavu xenograft; phage recovered from tumor

Row | Binder | percent reactive cells (FACS) [1] [%] | percent reactive cells (FACS) [2] [%] | percent reactive cells (FACS) [3] [%] | fold binding activity over control phage [4] [fold] | percent inhibition of PC94 binding to tumor tissue [5] [%]
1 | SFSIIHTPILPL (peptide, not shown: large carriers) [phage clone 94 (PC94)] | 19.1 | 47 to 81.2 | 25.7 to 31.9 | 8 | 
2 | SFSIIHTPILPL [SP94 synthetic peptide (…)] |  |  |  |  | 88
